Series [1] relates to E. coli BR513-80 SOS response. Put plainly: Biochemical induction assay (BIA). It counts as cell-based. To be noted: purified, approximately 90% pure. An excerpt:
The biochemical induction assay identifies DNA damaging agents which induce the SOS response in E. coli BR513-80. BR513-80 contains a translational fusion of the λ PL promoter and the lacZ gene. The λ PL promoter, activated as part of the SOS response after exposure to DNA damaging agents, drives the synthesis of β-galactosidase. β-galactosidase activity is detected by the cleavage of the 6-bromo-2-naphthyl-β-D-galactopyranoside (BNG) which reacts with Fast Blue RR salt to produce a red/purple color. […]
A BR513-80 overnight culture is diluted 1:20 in LBE broth or equivalent, and the absorbance of the diluted culture is measured at 600 nm. The absorbance of the undiluted culture is calculated, and 5.7 is divided by this value to obtain the volume (in mL) of culture to use as an inoculum per 40 mL soft agar. […] The calculated culture volume is swirled in soft agar, poured evenly over the base layer (40 ml per Nunc BioAssay plate, or 20 mL per 150 mm petri dish), and allowed to solidify for at least 10-15 minutes. […]
A dye/substrate overlay is prepared by dissolving 87 mg Fast Blue RR salt and 13 mg BNG in 2 mL DMSO and mixing with 40 mL melted 1% soft agar. […] The induction response is scored after 15-20 minutes at room temperature or after 10 min. at about 37° C. […]

Series [2] concerns p21−/− cells. Put plainly: In vitro anti-tumor activity, isogenic pair of cell lines. The note with it: p21−/− isogenic cell line; Mean + SD, n = 3. Format: cell-based. An excerpt: (§1) The p53/p21 checkpoint monitors the integrity of the genome and blocks cell cycle progression in the event of DNA damage. Disruption of the checkpoint by deletion of the p21 gene results in failure to arrest in response to DNA damage ultimately leading to cell death through apoptosis. Since loss of this checkpoint is a hallmark of cancer cells, an isogenic pair of cell lines, wherein one pair of the cell line (p21+/+) has an intact p21 gene and one member (p21−/−) has a deletion in the p21 gene, can be used to screen for potential anti-tumor compounds by identifying molecules that preferentially induce apoptosis in p21-deficient cells.
(§2) The Actinomadura sp. 21G792 chromoprotein was added to an isogenic pair of cell lines (p21+/+ and p21−/−).

Series [3] has as its system p21+/+ cells. Described as above. It counts as cell-based. To be noted: p21+/+ isogenic cell line; Mean + SD, n = 3.
Description: as §1, §2

For series [4], the system named is HN5. The series is described as follows: Potency against human tumor cell lines. It counts as cell-based. The note with it: HN5, Head & Neck.
Series [5] is described as follows: Toxicity of the chromoprotein in nude mice. To be noted: except for bone marrow suppression. Format: in vivo. The method, then:
21G792 chromoprotein is well-tolerated in nude mice. Specifically, saline control vehicle or the chromoprotein in various doses was administered intravenously to six nude mice on days 1, 5, and 9.

The target in series [6] is T1, Human PGP (MDR1) (Homo sapiens, UniProt P08183).
T1 construct: cells expressing clinically relevant levels of MDR1 (KB-8-5 cells) remain sensitive to the complex; endogenous in cells; host or cells: KB (P-GP -), KB-8-5 (+), KB-V-1 (+++)
T1 sequence (P08183 whole entry): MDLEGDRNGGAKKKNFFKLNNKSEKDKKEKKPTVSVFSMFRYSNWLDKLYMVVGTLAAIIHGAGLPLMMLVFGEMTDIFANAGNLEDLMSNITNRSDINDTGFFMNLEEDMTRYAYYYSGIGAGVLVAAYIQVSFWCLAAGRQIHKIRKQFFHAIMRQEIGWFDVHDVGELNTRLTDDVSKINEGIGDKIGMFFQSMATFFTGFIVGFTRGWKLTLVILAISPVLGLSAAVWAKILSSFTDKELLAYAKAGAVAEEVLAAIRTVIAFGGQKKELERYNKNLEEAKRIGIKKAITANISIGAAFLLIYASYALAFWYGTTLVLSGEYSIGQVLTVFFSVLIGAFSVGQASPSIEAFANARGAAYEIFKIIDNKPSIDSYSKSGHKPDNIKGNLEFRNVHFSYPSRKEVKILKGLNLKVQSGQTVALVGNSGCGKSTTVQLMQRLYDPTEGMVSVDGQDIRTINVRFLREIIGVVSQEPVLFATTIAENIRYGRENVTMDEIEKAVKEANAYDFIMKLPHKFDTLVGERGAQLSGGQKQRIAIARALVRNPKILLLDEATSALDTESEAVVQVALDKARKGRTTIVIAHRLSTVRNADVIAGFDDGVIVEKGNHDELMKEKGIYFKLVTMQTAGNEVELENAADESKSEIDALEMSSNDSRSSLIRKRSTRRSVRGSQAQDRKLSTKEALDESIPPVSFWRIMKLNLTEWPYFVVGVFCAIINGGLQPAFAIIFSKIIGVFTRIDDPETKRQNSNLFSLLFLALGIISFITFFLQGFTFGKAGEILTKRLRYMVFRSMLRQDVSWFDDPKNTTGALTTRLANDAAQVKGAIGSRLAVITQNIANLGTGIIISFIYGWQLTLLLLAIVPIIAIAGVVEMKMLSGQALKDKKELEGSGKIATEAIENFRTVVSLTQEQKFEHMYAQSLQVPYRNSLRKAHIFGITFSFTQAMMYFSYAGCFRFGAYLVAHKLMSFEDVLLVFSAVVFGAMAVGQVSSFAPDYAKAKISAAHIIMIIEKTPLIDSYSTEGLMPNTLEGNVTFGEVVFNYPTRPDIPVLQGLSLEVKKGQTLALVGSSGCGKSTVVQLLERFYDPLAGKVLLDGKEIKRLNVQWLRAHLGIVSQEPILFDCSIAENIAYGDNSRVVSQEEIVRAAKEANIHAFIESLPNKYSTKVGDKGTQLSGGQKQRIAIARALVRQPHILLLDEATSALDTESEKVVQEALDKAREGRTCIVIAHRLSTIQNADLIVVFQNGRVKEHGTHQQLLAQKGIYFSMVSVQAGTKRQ
Put plainly: Transport by P-GP (MDR-1). Format: cell-based. To be noted: result in words. An excerpt:
Human PGP (MDR1) is an ATP-dependent efflux pump which is capable of transporting many drugs across cell membranes. High level expression of this protein has been linked to multiple drug resistance of tumors. […] The protein component of the chromoprotein probably protects the chromophore from drug efflux mediated by MDR1, and may be responsible for the beneficial antitumor effects in colon cell lines which often express MDR1.

Series [7] relates to MDA-MB-361. The series is described as follows: Potency against human tumor cell lines. Format: cell-based. To be noted: MDA-MB-361, Breast.
For series [8], the system named is p53/p21 checkpoint in HCT116 (p21+/+ and p21−/−) cells. The series is described as follows: Induction of the G1/S checkpoint, protein immunoblot. It counts as cell-based, human. An excerpt:
HCT116 (p21+/+ and p21−/−) cells were exposed to the chromoprotein at various concentrations. […] Activation of the DNA damage checkpoint by the Actinomadura sp. […] 21G792 chromoprotein as shown by the cleavage of poly ADP ribose […] (PARP) (FIG. 23B). This is consistent with the lower IC50 value in the p21−/− cells.

Series [9] has as its system SW620. The series is described as follows: Potency against human tumor cell lines. To be noted: SW620, Colon. Format: cell-based.
Series [10] relates to histones H1, H2A, H2B, H3, and H4. Put plainly: Specificity of protein digestion by the chromoprotein. Format: biochemical. The note with it: myelin basic protein, bovine serum albumin.
The test system of series [11] is Histone H1. Put plainly: Digestion of histone H1, SDS-PAGE. Format: biochemical. The procedure:
Histone H1 was incubated with various concentrations of the chromoprotein in 50 mM Tris-Cl, pH 7.5 overnight at 37° C. (FIG. 29) Digestions of histone were assessed by SDS-polyacrylamide gel electrophoresis (SDS-PAGE), followed by staining of the gel with GelCode Blue (Pierce Biotechnology, Inc, Rockford, Ill.).

Consider one molecule from US20100028952A1, “FERMENTATION AND PURIFICATION OF ACTINOMADURA CHROMOPROTEIN AND RELATED SPECIES” (WYETH, priority 2006, published 2010).

By IC50 is commonly meant the concentration that inhibits the measured activity by half.

B1: Actinomadura sp. 21G792 chromoprotein: non-covalent complex of an apoprotein and a chromophore comprising a nine-membered enediyne, produced by Actinomadura sp. 21G792 (NRRL 30778) (protein)
chain: DTVTVNYDCVGYPSDIAVTIDAPATAGVGDTATFEVSSVVTTGAPQDLPAGEVVTDMAIVVGGAQSGTITASGLTNEATPAGQPVNMVGGEAQITFTSAGSVTFTPSTTTQVDNGAQCTVVGEAPVGATTVVS
Turning to B1, the BIA activity entry in series [1] is recorded as “BIA active”. The 50% inhibitory concentration (IC50) is 7 + 2 μg/ml in series [2]; 90 + 32 μg/ml in series [3]; 4 µg/mL in [4]; 5 µg/mL in series [7]; 2 µg/mL in series [9]. Besides, in [5], the “tolerability in nude mice” value is reported as “well-tolerated”. For the same molecule, the MDR1 substrate entry in [6] is given as “poor MDR1 substrate”. In series [8] (HCT116 p21+/+ and p21−/−), the “induction of the p21 protein” value is on record as “Induction of the p21 protein was seen in the p21+/+ cells only”. Besides, the “induction of apoptosis (PARP cleavage)” value in series [8] (p21−/− compared with p21+/+ cells) was “induction of apoptosis was preferentially observed in p21−/− cells compared with p21+/+ cells”. Further, the “cleavage of other proteins” value in [10] is listed as “cleaves other basic proteins such as myelin basic protein, but not neutral/acidic proteins such as bovine serum albumin”. The “effect of free radical scavengers and protease inhibitors on digestion of histones” value in series [11] (30 mM glutathione or N-acetyl cysteine, protease inhibitors) is reported as “inhibited by the addition of free radical scavengers, 30 mM glutathione or N-acetyl cysteine (not shown), but not by protease inhibitors”. For the same molecule, the “digestion of histone H1” value in series [11] (50 mM Tris-Cl, pH 7.5 overnight at 37° C.) is “digestion of Histone H1”. In addition, in [11] (addition of DNA), the “effect of DNA on digestion of histone H1” value was “inhibited by addition of DNA”.
